Experimental findings from paper PMC13696528 (2026) are described below.

In the experiment the target is PD-L1 (UniProt Q9NZQ7). Nature of the experiment: SPR.

No end group written: not given here.

PD-L1, sequence (Q9NZQ7 19-238): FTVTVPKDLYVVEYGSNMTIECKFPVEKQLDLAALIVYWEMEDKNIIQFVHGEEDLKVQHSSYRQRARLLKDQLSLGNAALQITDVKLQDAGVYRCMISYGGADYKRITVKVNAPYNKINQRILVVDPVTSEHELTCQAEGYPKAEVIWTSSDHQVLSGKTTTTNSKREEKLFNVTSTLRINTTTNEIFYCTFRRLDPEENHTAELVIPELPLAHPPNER

By Kd is commonly meant the constant that tells how readily two partners part at equilibrium. A lower Kd goes with tighter binding. NTGYFYGDQ (also: co-assembled nanofiber with IR-CF3) [PSP (PSP@IR-CF3 nanofiber)] gave a Kd of 27.8 nM.
